Molecular target: T1, PPE68 (Mycobacterium tuberculosis, UniProt P9WHW9 1-368)
T1 construct: also called recombinant PPE68
T1 sequence: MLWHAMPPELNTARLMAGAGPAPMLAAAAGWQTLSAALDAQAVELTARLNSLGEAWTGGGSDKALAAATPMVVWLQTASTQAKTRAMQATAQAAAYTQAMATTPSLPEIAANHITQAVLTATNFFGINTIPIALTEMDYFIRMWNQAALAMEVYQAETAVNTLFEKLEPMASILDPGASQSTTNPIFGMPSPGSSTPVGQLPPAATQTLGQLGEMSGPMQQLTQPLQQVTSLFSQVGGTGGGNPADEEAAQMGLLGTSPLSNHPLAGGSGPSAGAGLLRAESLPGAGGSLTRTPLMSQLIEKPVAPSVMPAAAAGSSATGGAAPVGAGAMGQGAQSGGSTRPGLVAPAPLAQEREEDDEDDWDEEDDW
Assay: other fluorescence titration; intrinsic fluorescence of the PPE protein (10 μg) with the tryptophan-free PE protein added (10 and 30 μg); excitation 280 nm, emission 300-340 nm, 25 ± 0.1 °C
Conditions: both partners purified

B1: PE35 (natural protein)
chain: MEKMSHDPIAADIGTQVSDNALHGVTAGSTALTSVTGLVPAGADEVSAQAATAFTSEGIQLLASNASAQDQLHRAGEAVQDVARTYSQIDDGAAGVFAE
notes: also called recombinant PE35
B1: binds.

Reference: PMC6943233, “Disorder‐to‐order transition in PE–PPE proteins of Mycobacterium tuberculosis augments the pro‐pathogen immune response” (FEBS Open Bio, 2019)
